Reference: the nanobody polyreactivity screen of Harvey et al. (2022)

Experiment: yeast display, Sf9 membrane polyspecificity reagent, FACS + sequencing; frameworks hold sequencing errors
Method in brief: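 Galactose induction of a Saccharomyces cerevisiae BJ5465 synthetic nanobody display library ran 36–48 hours. The cells were then stained for 1 hour at 4 °C with 10% biotinylated, detergent-solubilized Sf9 membrane reagent, pulled down on streptavidin microbeads and FACS-sorted into low and high (top ~1%) gates on expression and reagent-binding fluorescence. Labels for polyreactivity follow the gate of origin.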

Sequence | polyreactivity (PSR sort gate)
QVQLVESGGGLVQAGGSLRLSCAASGSTFQANTMGWYRQAPGKERELVAAISIRGANTYYADSVKGRFTISRDNAKNTVYLQMNSLKPEDTAVYYCNAALRTRRGDYDYWGQGTQVTVSS | high polyreactivity
QVQLVESGGGLVQAGGSLRLSCAASGRIFRGYAMGWYRQAPGKERELVAAISQSGSSTYYADSVKGRFTISRDNAKNTVYLQMNSLKPEDTAVYYCAVKYLKHFGYWGQGTQVTVSS | high polyreactivity
QVQLVESGGGLVQAGGSLRLSCAASGRTFPVYAMGWYRQAPGKERELVAAIRGRSVRTYYADSVNGRFTISRDNAKNTVYLQMNSLKPEDTAVYYCAAYYFNPGMDYWGQGTQVTVSS | high polyreactivity
QVQLVESGGGLVQAGGSLRVSCAASGRIFASYAMGWYRQAPGKERELVAAISLSGGSTYYADSVKGRFTISRDNAKNTVFLQMNSLKPEDTAVYYCAAKNYRRYRDYYWGQGTQVTVSS | high polyreactivity
QVQLVESGGGLVQAGGSLRLSCAASGISFSYYAMGWSRQAPGKERELVAAISSSGSTNYADSVKGRFTISRDNAKNTVYLQMNSLKPEDTAVYYCNAGYGRRVYVYSFKLRYNYWGQGTQVTVSS | high polyreactivity
QVQLVESGGGLVQAGGSLRLSCAASGRIFTSYAMGWYRQAPGKERELVAAITASGGRTYYADSVKGRFTISRDNAKNTVYLQMNCLKPEDTAVYYCAKLLSFQGDYWGQGTQVTVSS | high polyreactivity
QVQLVESGGGLVQAGGSLRLSCAASGRIFHYNAMGWYRQAPAKERELVAAINRSGGTTNYADSVKGRFTISRDTAKNTVYLEMNSLIPEDTAVYYCNATLPDYWPYYYYLGGDDYWGQGTQVTVSS | low polyreactivity
QVQLVESGGGVVQAGGSLRLSCAASGITFQGDDMGWYRQAPGKEREFVAAITWNGGSTYYADSVKGRFTISRDHAKNTVFLQMNSLKPEDTAVYYCAADWSITYGDGGYWGQGTQVTVSS | low polyreactivity
QVQLVESGGGLVQAGGSLRLSCAASGSIFYRNVMGWYRQAPGKERELVAAISRSGGSTYYADSVKGRFTISRDNAKNTVYLQMNSLQPEDTAVYYCAGRYSPFYYWGQGTQVTVSS | high polyreactivity
QVQLVESGGGLVQAGGSLRLSCAASGSTFTVYAMGWYRQAPGKEREFVAAITPSGASTYYADSVKGRFTISRDNAKNTVYLQMNSLKPEDTAVYYCNARSRTGYTNRMYYWGQGTQVTVSS | high polyreactivity
QVQLVESGGGLVQAGGSLRLSCAASGSIFYSNAMGWYRQAPGKERELVAAISWSGGSTYYADSVKGRFTISRDYAKNTVYLQMNSLKPEDTAVYYCAASYDIYYYDAASLDDYDYWGQGTQVTVSS | low polyreactivity
QVQLVESGGGLVHAGGSLRLSCAASGRIYRGNAMGWYRQAPGKERELVARITGNDGDTYYADSVKGRFTISRDNEKNTVYLQMKSLKPEDTAVYYCATDTSSYRSRYYYWGQGTQVTVSS | low polyreactivity
QVQLVESGGGLVQGGGSLRLSCAASGSIFSDNAMGWYRQAPGKERELVATITFSGASTYYADSVKGRFTISRDNAKNTVYLKMNSLKPEDTAVYYCAAEEPDVIAQPGFDYWGQGTQVTVSS | low polyreactivity
QVQLVESGGGLVQAGGSLRLSCAASGRTFGQYVMGWYRQAPGKERELVAAIRSGGSTYYADSVKGRFTISRDNAKNTVYLQMNSLKPEDTAVYYCAKETYYGTDNFGQVGGEMDYWGQGTQVTVSS | low polyreactivity
QVHLVESGGGLVQAGGSLRLSCAASGSIFYVYAMGWYRQAPGKERELVAAITSSGTTNYADSVKGRFTISRDNAKNTVYLQMNSLKPEDTAVYYCAADPDSGQVPFDYWGQGTQVTVSS | low polyreactivity
QVQLVESGGGLVQAGGSLRLSCAASGRIGRNAMGWYRQAPVKERELVATISWSAGRTFYADSVKGRFTISRDNAKNTVYLQMNSLKPEDTAVYYCAAGGWQRGYYWGQGTQVTVSS | high polyreactivity

Sequence | polyreactivity (PSR sort gate)
QVQLVESGGGLVQAGGSLRLSCAASGSIIYIYAMGWYRQAPGKERELVAAISSGDRTNYADSVKGRFTISRDNAKNTVYLQMNSLKPEDTAVYYCAARGRGSAAKYNYWGQGTQVTVSS | high polyreactivity
QVQLVESGGGLVQAGGSFRLSCAASGSIFVVYDMGCYRQAPGKERELVAAITSGGSTYYADSVKGRFTISRDNAKNTVYLQMNSLKPEDTAVYYCAADSYEGYDYWGQGTQVTVSS | low polyreactivity
QVQLVESGGGLVQAGGSLRLSCAASGRTSGFNTMGWYRQAPGKERELVAAISFSGGSTYYADSVKGRFTISRDNAKNTVYLQMNSLKPEDTAVYYCNALFRYLYRSGDYWGQGTQVTVSS | low polyreactivity
QVQLVESGGGLVQAGGSLRLSCAASGSTFRAYAMGWYRQAPGKERELVAAISRSGGSTYYADSVKGRFTISRDNAKNTVYLQMNSLKPEDTAVYYCNAAYKNYQYRPPNIDGQGDYWGQGTQVTVSS | high polyreactivity
QVQLVESGGGLVQAGGSLRLSCAASGRTLSYYAMGWYRQAPGKERELVAAIRHSAGSTYYADSVKGRFTISRDTAKNTVYLQMNSLKPEDTAVYYCAKKYYGHRYPSIYDYWGQGTQVTVSS | high polyreactivity
QVQLVESVGGLVQAGGSLRLICAASGSTFNWYAMGWYRQAPGKERDLVADITWRDGSTYYADSVKGRFTISRDNAKNTVYLQMNSLKPDDPAVYYCADDYTYWGIFFGYWGQGTQVTVSS | high polyreactivity
QVQLVESGGGLVHAGGSLRLSCAASGSTLGYNVMGWYRQAPGKERELVAAISGDGSTNYADSVKGRFTISRDNAKNTVYLQMNSLKREDTEVYYCNAPFWGYRTSFSYPVVQRFDYWGQGTHVTVSS | low polyreactivity
QVQLVESGGGLVQAGGSLRLSCAASGRTFRWNAMGWYRQAPGKERELVATIRSGDSTNYADSVKGRFTISRDNAKNTVYLQMNSLKPEDTAVYYCAAEGVSKVYWGYFGSYDYWGQGTQVTVSS | low polyreactivity
QVQLVESGGCLVQAGGSLRLSCAASGRIFFYYTLGWYRQAPGKERELVAAINSTGSTNYADSVKGRFTISRDNAKNTVYLQMKSLKPEDTAVYYCNAGTRYIFLYPPFLGAAFDYWGQGTQVTVSS | low polyreactivity
QDQLVESGGGLVQAGGSLRLSCAASGSTFAGNGMGWYRQAPGKERELVAGIDVTGGSTYYADSVKGRFTISRDNAKNTVYLQMNSLKPEDTAVYFCNARYVYHSSFAGFDYWGQGTQVTVSS | low polyreactivity
QVQLVESGGRLVQAGGSLRLSCAASGITFDLYDMGWYRQAPGKVRELVAAITDADSTYYADSVKGRFTMSRDNEKNTVKLQMTSLIPEDTAVYYCAADFFYSVYSGHYDYWGQGTQVTVSS | low polyreactivity
QVQLVESGGGLVQAGGSLRLSCAASGSIFGTYPMGWYRQAPGKERELVAAITRRGGSTFYADSVKGRFTISRDNAKNTVYLQMNSLKPEDTAVYYCAAPPYYWGQGTQVTVSS | high polyreactivity
QVQLVESGGGLVQAGGSLRVSCAASGSTFTWYAMGWYRQAPGKVRELVAAIRWSGGNTYYADSVKGRFTISRDNAKNTVFLQMNSLKPEDTAVYYCNAYQYFPRYDYWGQGTQVTVSS | high polyreactivity
QVQLVESGGGLVQAGGSLRLSCAASGSILAYYARGWYRQAPGQERELVADIRAGGGNTYYADSVKGRFTISRDNAKNTVYLQMNSLKPEDTAVYYCNADWHFWYKWESYDYDYWGQGTQVTVSS | low polyreactivity
QVQLVESGGGLVQAGGSLRLSCAASGSTFVIYTMGGSRQAPGKERELVAAISWSGGITRYADSVKGRFTISRDIAKNTVYLQMNSLKPEDTAVYYCNASQWPSRFDYWGQGTQVSVSS | low polyreactivity
QVQLVESGGGLVQAGGSLRLSCAASGRIFSGYAMGWYRQAPGKEWELVAAITWSGGSTYADSVKGRFTISRDNAKHTVYLQMNTLKPEDTAVYYCNTSARYNGSYKYDYWGQGTQVTVSS | low polyreactivity
